The target in assay [1] is Human FcRn (FCGRT&B2M) Protein (human) (UniProt P55899). Description: BLI (Octet RED96), His-tagged FcRn on Ni-NTA sensor, pH 6.0. A general note: BLI is a label-free optical method that tracks binding on a fibre tip over time.
The target in assay [2] is human C1q (human) (UniProt P02745). Description: BLI (Octet RED96), biotinylated antibody on SA sensor, C1q in solution.
Assay [3] addresses human FcγRIIa-H167 (human) (UniProt P12318). Description: BLI (Octet), receptor on sensor.
Another assay deals with human FcγRI (human) (UniProt P12314). Description: BLI (Octet), receptor on sensor.
The target in assay [4] is human FcγRIIIb-NA2 (human) (UniProt O75015). The assay can be described thus: BLI (Octet), receptor on sensor.
For assay [5], the target named is human FcγRIIa-R167 (human) (UniProt P12318). The assay can be described thus: BLI (Octet), receptor on sensor.
The target in a further assay is human FcγRIIb (human) (UniProt P31994). The assay can be described thus: BLI (Octet), receptor on sensor.
Assay [6] addresses human FcγRIIIa-V176 (human) (UniProt P08637). Description: BLI (Octet), receptor on sensor.
Assay [7] concerns the target human FcγRIIIb-NA1 (human) (UniProt O75015). Description: BLI (Octet), receptor on sensor.
The target in assay [8] is human FcγRIIIa-F176 (human) (UniProt P08637). Description: BLI (Octet), receptor on sensor.
In assay [9] the target is human C1q (human) (UniProt P02745). Description: BLI (Octet), biotinylated antibody on sensor, C1q in solution.
The target of assay [10] is Human FcRn (FCGRT&B2M) Protein (human) (UniProt P55899). The assay can be described thus: BLI (Octet), FcRn on sensor, pH 6.0.
Assay [11] concerns the target human FcγRIIIa-V176 (human) (UniProt P08637). The assay can be described thus: BLI (Octet RED96), biotinylated receptor on SA sensor.
Assay [12] concerns the target human FcγRIIIa-F176 (human) (UniProt P08637). Described as above.
A further assay deals with human CLDN18.2 (human). The assay can be described thus: flow cytometry on NCI-H146 cells; unit taken from the concentration axis; fit of the flat control curve. In general terms: Flow cytometry measures light scatter and fluorescence of single cells or particles in a stream.

Chain of human FcγRIIIa-F176 (human) (P08637 17-208 limits assumed): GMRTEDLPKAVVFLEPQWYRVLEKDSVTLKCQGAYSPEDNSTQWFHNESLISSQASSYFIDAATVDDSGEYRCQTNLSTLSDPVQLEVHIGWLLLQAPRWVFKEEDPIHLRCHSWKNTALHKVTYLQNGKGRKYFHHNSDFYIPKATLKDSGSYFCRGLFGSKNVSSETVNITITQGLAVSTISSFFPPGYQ
Chain of human C1q (human) (P02745 23-245, chain 1 of 3): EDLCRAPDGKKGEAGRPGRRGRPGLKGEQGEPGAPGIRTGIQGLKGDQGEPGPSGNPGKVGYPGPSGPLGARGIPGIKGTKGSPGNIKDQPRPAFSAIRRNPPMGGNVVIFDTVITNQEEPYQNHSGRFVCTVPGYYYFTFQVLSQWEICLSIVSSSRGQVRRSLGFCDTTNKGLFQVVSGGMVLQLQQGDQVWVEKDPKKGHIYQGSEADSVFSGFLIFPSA
Chain of human C1q (human) (P02746 28-253, chain 2 of 3, further chain): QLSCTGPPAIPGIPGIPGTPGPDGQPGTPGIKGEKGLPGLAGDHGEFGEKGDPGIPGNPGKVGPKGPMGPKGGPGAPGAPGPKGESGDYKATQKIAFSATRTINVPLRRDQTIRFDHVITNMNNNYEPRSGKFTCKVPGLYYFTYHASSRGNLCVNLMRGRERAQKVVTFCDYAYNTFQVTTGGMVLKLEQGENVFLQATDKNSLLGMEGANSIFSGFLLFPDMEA
Chain of human C1q (human) (P02747 29-245, chain 3 of 3, further chain): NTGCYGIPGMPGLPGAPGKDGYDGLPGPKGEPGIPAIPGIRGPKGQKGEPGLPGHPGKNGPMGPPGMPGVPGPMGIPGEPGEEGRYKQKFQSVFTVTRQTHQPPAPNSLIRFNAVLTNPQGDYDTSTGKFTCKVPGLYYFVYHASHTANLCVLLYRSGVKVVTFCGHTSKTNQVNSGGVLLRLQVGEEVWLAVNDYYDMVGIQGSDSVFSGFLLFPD
Chain of human FcγRIIIa-V176 (human) (P08637 17-208 F176V limits assumed): as the sequence (P08637 17-208 limits assumed) above, with F160V counted along it
Chain of Human FcRn (FCGRT&B2M) Protein (human) (P55899 24-297 limits assumed, chain 1 of 2): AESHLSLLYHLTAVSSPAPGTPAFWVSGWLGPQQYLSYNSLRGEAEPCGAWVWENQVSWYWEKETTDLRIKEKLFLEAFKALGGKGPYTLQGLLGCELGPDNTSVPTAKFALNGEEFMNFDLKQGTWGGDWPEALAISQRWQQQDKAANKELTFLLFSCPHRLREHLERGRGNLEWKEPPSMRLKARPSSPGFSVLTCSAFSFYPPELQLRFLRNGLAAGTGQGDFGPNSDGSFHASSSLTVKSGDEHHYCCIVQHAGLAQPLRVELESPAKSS
Chain of Human FcRn (FCGRT&B2M) Protein (human) (P61769 21-119 limits assumed, chain 2 of 2, further chain): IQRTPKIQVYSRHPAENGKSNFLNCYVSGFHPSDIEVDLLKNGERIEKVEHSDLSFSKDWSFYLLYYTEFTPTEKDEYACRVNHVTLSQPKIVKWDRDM
Chain of human FcγRIIa-H167 (human) (P12318 36-218 limits assumed): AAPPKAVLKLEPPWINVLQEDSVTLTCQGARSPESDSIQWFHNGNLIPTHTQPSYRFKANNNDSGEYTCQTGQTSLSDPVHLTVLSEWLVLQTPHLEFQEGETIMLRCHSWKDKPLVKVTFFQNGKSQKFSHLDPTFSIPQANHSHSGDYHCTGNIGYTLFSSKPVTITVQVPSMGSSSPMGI
Chain of human FcγRIIIb-NA2 (human) (O75015 17-200 N65S limits assumed): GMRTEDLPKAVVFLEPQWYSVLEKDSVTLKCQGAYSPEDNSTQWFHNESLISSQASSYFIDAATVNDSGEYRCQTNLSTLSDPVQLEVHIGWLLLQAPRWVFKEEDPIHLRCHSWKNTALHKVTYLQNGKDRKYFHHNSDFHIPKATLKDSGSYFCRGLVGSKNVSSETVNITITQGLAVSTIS
Chain of human FcγRIIb (human) (P31994 46-217 limits assumed): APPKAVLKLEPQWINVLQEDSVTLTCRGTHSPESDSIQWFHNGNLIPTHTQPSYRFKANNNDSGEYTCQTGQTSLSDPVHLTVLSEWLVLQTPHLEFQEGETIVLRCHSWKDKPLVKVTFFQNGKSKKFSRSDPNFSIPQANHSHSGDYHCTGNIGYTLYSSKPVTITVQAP
Chain of human FcγRI (human) (P12314 16-288 limits assumed): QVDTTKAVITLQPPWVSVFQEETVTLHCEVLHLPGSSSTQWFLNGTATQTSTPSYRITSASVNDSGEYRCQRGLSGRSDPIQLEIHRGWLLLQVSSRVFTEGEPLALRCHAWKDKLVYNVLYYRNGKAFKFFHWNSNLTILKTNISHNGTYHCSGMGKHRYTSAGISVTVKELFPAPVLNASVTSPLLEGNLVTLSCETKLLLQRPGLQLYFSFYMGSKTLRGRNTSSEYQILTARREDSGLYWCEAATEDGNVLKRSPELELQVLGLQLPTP
Chain of human FcγRIIa-R167 (human) (P12318 36-218 H167R limits assumed): as the sequence (P12318 36-218 limits assumed) above, with H132R counted along it
Chain of human FcγRIIIb-NA1 (human) (O75015 other isoform, or with tags, fused parts or gaps limits assumed): as the sequence (O75015 17-200 N65S limits assumed) above, with S20R, S49N, N66D, I90V counted along it

Consider IMAB362 (antibody), for which the dissociation constant (Kd) (in general, the free concentration of one partner at which half of the binding sites on the other are occupied at equilibrium, for simple one-to-one binding) came out at 10.5 nM in [1]; 21.5 nM in the assay with human C1q (human) [2]; 193 nM in assay [3]; 5.22 nM with human FcγRI (human); 3160 nM in assay [4]; 117 nM in assay [5]. Also, the dissociation constant Kd with human FcγRIIb (human) is 230 nM; in assay [6] it was 61.5 nM; in [7], 3970 nM; in assay [8], 232 nM; in the assay with human C1q (human) [9] it was 21.5 nM; in assay [10], 10.5 nM. The results for the equilibrium dissociation constant (Kd) in assay [11] and in [12] were 61.5 nM and 232 nM, respectively.
Regarding Isotype Control (antibody), the concentration for a half-maximal effect (EC50) (usually the midpoint of the concentration-response curve) with human CLDN18.2 (human) is 3.67 µg/mL.

The values are drawn from patent US20220306765A1.
